Assay results as given in PMC2978343.

Tests used:
Ecl18kI R174A mutant [1] = target: Ecl18kI R174A mutant (UniProt O87963)
Ecl18kI R174A mutant [2] = target: Ecl18kI R174A mutant (UniProt O87963); test: atomic force microscopy
[3] = target: Ecl18kI restriction endonuclease, wild type (UniProt O87963); test: tethered particle motion

With “Ecl18kI R174A mutant (from UniProt O87963 1-305) (enzyme)” the phage lambda DNA cleavage activity, % of wt (Ecl18kI R174A mutant [1]) was 0.2% and the stoichiometry N (Ecl18kI R174A mutant [2]) was 2.

With “Ecl18kI restriction endonuclease, wild type (from UniProt O87963 1-305) (enzyme)” the k unloop (loop breakage rate constant, tetramer to two DNA-bound dimers) [3] was 0.86 s⁻¹.
